These are literature values, as cited in PMC10580911.

The target of the series is Tk-subtilisin (Thermococcus kodakarensis) (UniProt P58502).

As a reminder, the Kd is the concentration at which binding is half-saturated. “Tk-subtilisin propeptide propeptide (from UniProt P58502)”: the Kd was 1.4 nM.
